Experimental data taken from patent US12655454B2, “Process for producing formate using oxygen-tolerant enzymes” (GWANGJU INSTITUTE OF SCIENCE AND TECHNOLOGY, priority 2022, dated 2026).

Substrate: NC(=O)C1=CN([C@@H]2O[C@H](COP(=O)(O)OP(=O)(O)OC[C@H]3O[C@@H](n4cnc5c(N)ncnc54)[C@H](O)[C@@H]3O)[C@@H](O)[C@H]2O)C=CC1
Experiment: NADH-dependent CO2 reduction kinetics of RcFDH (Michaelis-Menten)
Format: biochemical, Rhodobacter capsulatus
Details: Kpi buffer pH 7.0, absorbance at 365 nm
Procedure: To construct the Strep-Tag II-fused Rhodobacter capsulatu-derived formate dehydrogenase (RcFDH) expression plasmid, pTrcHis-RcFDH was used as a template. […] was performed to substitute the hexahistidine-tag for strep tag II. pTrcHis-RcFDH was amplified by PCR with the in-fusion primer (FW: SEQ ID NO: 9, RV: SEQ ID NO: 10). The PCR product was mixed with 5× In-Fusion HD Enzyme Premix to generate pTrcHis-strep-RcFDH. The E. coli MC1061 strain was transformed with pTrcHis-Strep-RcFDH, and R. eutropha HF210 [pGE771] strain was used as the Ralstonia eutropha-derived hydrogenase (ReSH)-expressing strain.
The enzyme reaction kinetics of RcFDH were measured for NADH-dependent reduction of CO2 to formate in the presence or absence of O2. The sealing cuvette was filled with 900 μL of Kpi buffer containing NADH and sealed; then, 100% CO2 and a mixed gas consisting of 4% O2 and 96 N2 (or 100% N2 for anaerobic conditions) were injected simultaneously for 30 min at 10 mL/min, respectively. RcFDH (2 mL, 2 μM) was purged with 10 mL/min N2 gas bubbling in a 10 mL sealing vial for 30 min to remove O2 from the air. The reaction was initiated by mixing 100 μL of 2 μM RcFDH with a gas-saturated solution in the sealing cuvette. The final concentration of NADH was varied from 0 to 1 mM.
All measurements were performed in triplicate based on the change in the absorbance at 365 nm in the cuvette, measured using a T60 UV-Vis spectrophotometer (PG Instruments Ltd, Lutterworth, UK). The change in the absorbance over 1 min was plotted using the Michaelis-Menten equation to calculate the kinetic parameters.
The present inventor investigated the enzymatic activities of ReSH and RcFDH in the presence or absence of O2. The NAD^+-dependent H2 oxidation reaction rate by ReSH was measured, and the Michaelis-Menten curve was fitted to calculate the kinetic parameters using Origin 2022 program (FIG. 3A). […] Similarly, the NADH-dependent CO2 reduction reaction rate by RcFDH was measured, and the Michaelis-Menten curve was fitted to calculate the kinetic parameters (FIG. 3B).

[1] = other: 0% O2, NADH varied 0 to 1 mM
[2] = other: 2% O2, NADH varied 0 to 1 mM

B1: Strep-Tag II-fused Rhodobacter capsulatus-derived formate dehydrogenase (RcFDH), SEQ ID NO: 6 to SEQ ID NO: 8 (Rhodobacter capsulatus SB 1003) (protein)
chain 1: MKIWLPCDAAAKACGAEAVLAALRLEAEKRGGALDIARNGSRGMIWLEPLLEVETPAGRIGFGPMTPADVPALFDALESHPKALGLVEEIPFFKRQTRLTFARCGRIEPLSLAQFAAAEGWAGLRKALKMTPAEVVEEVLASGLRGRGGAGFPTGIKWRTVAAAQADQKYIVCNVDEGDSGSFADRMLIEGDPFCLVEGMAIAGHAVGATRGYVYIRSEYPDAIAVMRAAIAMAKPFLAEAGFEMEVRVGAGAYVCGEETSLLNSLEGKRGTVRAKPPLPALKGLFGKPTVVNNLLSLAAVPWIIAHGAKAYESFGMDRSRGTIPLQIGGNVKRGGLFETGFGITLGELVEDICGGTASGRPVKAVQVGGPLGAYHPVSDYHLPFCYEQFAGQGGLVGHAGLVVHDDTADMLKLARFAMEFCAIESCGTCTPCRIGAVRGVEVIDRIAAGDASAMPLLDDLCQTMKLGSLCALGGFTPYPVQSAIRHFPADFPCAREAAE
chain 2: MKDLIIPPLDWTQDMGTPKREGAPVHLTIDGVEVTVPAGTSVLRAAAEAGISIPKLCATDNVEPVGSCRLCMVEIEGMRGTPTSCTTPVAPGMRVHTQTPQLQKLRRGVMELYISDHPLDCLTCAANGDCELQDMAGAVGLREVRYQAKDTHFARRDATGPNPRYIPKDNSNPYFSYDPAKCIVCMRCVRACEEVQGTFALTVMGRGFDARISPAAPDFLSSDCVSCGACVQACPTATLVEKSVERIGTPERKVVTTCAYCGVGCSFEAHMLGDQLVRMVPWKGGAANRGHSCVKGRFAYGYATHQDRILKPMIRDKITDPWREVNWTEALDFTATRLRALRDSHGADALGVITSSRCTNEETYLVQKLARAVFGTNNTDTCARVCHSPTGYGLKQTFGTSAGTQDFDSVEETDLALVIGANPTDGHPVFASRLRKRLRAGAKLIVVDPRRIDLLNTPHRGEAWHLQLKPGTNVAVMTAMAHVIVTEQIFDKRFIGDRCDWDEWADYAEFVANPEYAPEAVESLTGVPAGLLRQAARAYAAAPNAAIYYGLGVTEHSQGSTTVIAIANLAMMTGNIGRPGVGVNPLRGQNNVQGSCDMGSFPHEFPGYRHVSDDATRGLFERTWGVTLSSEPGLRIPNMLDAAVEGRFKALYVQGEDILQSDPDTRHVSAGLAAMDLVIVHDLFLNETANYAHVFLPGSTFLEKDGTFTNAERRINRVRRVMAPKAGFADWEVTQMLANALGAGWHYTHPSEIMAEIAATTPGFAAVTYEMLDARGSVQWPCNEKAPEGSPIMHVEGFVRGKGRFIRTAYLPTDEKTGPRFPLLLTTGRILSQYNVGAQTRRTENTVWHGEDRLEIHPTDAETRGIRDGDWVRLASRAGETTLRATVTDRVSPGVVYTTFHHPDTQANVVTTDTSDWATNCPEYKVTAVQVAASNGPSDWQQDYAAQAAAARRIEAAE
Km [1]: 166 ± 30 µM
kcat [1]: 0.703 ± 0.043 s⁻¹
Km [2]: 141 ± 22 µM
kcat [2]: 0.699 ± 0.035 s⁻¹
